For 32 variants, self-cleavage results are on record in the RNAGym collection of RNA variant scans (doi:10.7554/elife.80360).

First the molecules themselves.
B1: HDV Ribozyme (parent)
chain: GGCCGGCAUGGUCCCAGCCUCCUCGCUGGCGCCGGCUGGGCAACAUUCCGAGGGGACCGUCCCCUCGGUAAUGGCGAAUGGGACCCA

In this data set the parent is B1. Nature of the data set: self-cleavage, relative activity (ratio to wild type); higher = more cleavage; co-transcriptional.
As to GGCCGGCAUGGUCCCAGCCUCCUCGCUGGCGCAGGCUGGGCAACAUUCCGAGGAGACCGUCCCCUCGGUAAUGGCGAAUGGGACCCA [C33A G54A], the self-cleavage is 0.253.

Regarding GGCCGGCAUGGUCCCAGCCUGCUCGCUGGCGCCGUCUGGGCAACAUUCCGAGGGGACCGUCCCCUCGGUAAUGGCGAAUGGGACCCA [C21G G35U], the self-cleavage is 0.104.

As for GGCCGGCAUGGUCCCAGCCUCCUCGCUGGCGCCGGCUGUGGAACAUUCCGAGGGGACCGUCCCCUCGGUAAUGGCGAAUGGGACCCA [G39U C41G], the self-cleavage was determined as 0.46.

As for GGCCGGCAUGGUGCCAGCCUCCUAGCUGGCGCCGGCUGGGCAACAUUCCGAGGGGACCGUCCCCUCGGUAAUGGCGAAUGGGACCCA [C13G C24A], the self-cleavage worked out at 0.0594.

With GGCCGGCAUAGUCCCAGCCUCCUCGCUGGCGCCGGCUGGGCAACAUUCCGAGGGGACCGUCCCCUCGGUAAAGGCGAAUGGGACCCA [G10A U72A], the self-cleavage is 0.485.

Consider GUCCGGCAUGGUCCCAGCCUCCUCGCUGGCGCCGGCUGGGCAACAUUCCGAGGUGACCGUCCCCUCGGUAAUGGCGAAUGGGACCCA [G2U G54U], for which the self-cleavage was 0.0589.

Regarding GGCCGGCAUGGUCCCAGUCUCCUCGCUGGCGCCGGCUGGGCAACAUUCCGAGGGGACCGUCCCCUCGAUAAUGGCGAAUGGGACCCA [C18U G68A], the self-cleavage turned out to be 0.739.

For the variant GGCGGGCAUGGUCCCAGCCUCCUCGCUGGCGCCGGCUGGGCAACAUUCCGAGGGGACCGUCCCCUCGGUAAUGGCGAAUGGGACCUA [C4G C86U], the self-cleavage worked out at 0.44.

For GGCCGGCAUGGUCCCAGCCUCCUCGCUGGCGCCGGCUGGGCAACUUUCCGAGGGGACCGUCCCCUCGGUAAUGGCGACUGGGACCCA [A45U A78C], the self-cleavage turned out to be 0.13.

Turning to GGCCGGCAUGGUCGCAGCCUCCUCGCUGGCGCCGGCUGGGCAACAUUCCGAAGGGACCGUCCCCUCGGUAAUGGCGAAUGGGACCCA [C14G G52A], the self-cleavage is 0.739.

Take GGCCGGCAUGGUCCCAGCCUCCUCGCUGGCGCCGGCUGGGCAACAUUCCGAGGGGACCGUCCCCGCUGUAAUGGCGAAUGGGACCCA [U65G G67U]: the self-cleavage was determined as 0.569.

Turning to GGCCGGCAUGGUCCCAGCCUCCGCGCUGGCGCCGGCUGGGCAACAUUCCGAGGGGACGGUCCCCUCGGUAAUGGCGAAUGGGACCCA [U23G C58G], the self-cleavage was 0.72.

In the case of GGCCGGCAUGGUCCCAGCCUCCUCGCUGGCGGCGGCUGGGCAACAUUCCGAGGGGACCGUCCCCUCGGUAAUGGCGAAUGGGACGCA [C32G C85G], the self-cleavage is 0.111.

Turning to GGCCGGCAUGGUCCCAGCCUCCUCGCUGGCGCCGGCUGGCCAACAUUCCGCGGGGACCGUCCCCUCGGUAAUGGCGAAUGGGACCCA [G40C A51C], the self-cleavage amounted to 0.111.

Regarding GGCCGGCAUGGUCCCAGCCUCCUCGCUGGCGCCGGCUGGGCAACAUUCCGAGGGGACCGUCCCCUCGGUAAUGGCGUAUGGGACCAA [A77U C86A], the self-cleavage was determined as 0.831.

Consider GGCCGGCAUGGUCCCAGCCUCCUCUCUGGCGCCGGCUGGGCAACAUUCCGAGGGGACCGUCCCCUCGGUAAUGGCUAAUGGGACCCA [G25U G76U], for which the self-cleavage is 0.389.

Regarding GGCCGGCUUGGUCCCAGCCUCCUCGCUGGCGCGGGCUGGGCAACAUUCCGAGGGGACCGUCCCCUCGGUAAUGGCGAAUGGGACCCA [A8U C33G], the self-cleavage is 0.0536.

Take GGACGGCAUGGUCCCAGCCUCCACGCUGGCGCCGGCUGGGCAACAUUCCGAGGGGACCGUCCCCUCGGUAAUGGCGAAUGGGACCCA [C3A U23A]: the self-cleavage came out at 0.475.

As to GGCCGGCAUGGUCCCAGCCUCCUCGCUGGCGCCGGCUGGGCAACAUUCCGAGGGGACCGUCCGCUCGGUAAGGGCGAAUGGGACCCA [C63G U72G], the self-cleavage was 0.192.

For the variant GGCCGGCUUGGUCCCAGCCUCCUCGCUGGCGCCGGCUGGGCAACAUUCCGGGGGGACCGUCCCCUCGGUAAUGGCGAAUGGGACCCA [A8U A51G], the self-cleavage is 0.767.

For the variant GGCCGGCAUGGUCCCAGCCUCCUCGCUGGCGCCGGCUGGGCAACAUUCCGAGGGGACCGUCCCCUCGGGAAUGGCGAAUGGGACCCG [U69G A87G], the self-cleavage worked out at 0.876.

Consider GGCCGGCAUGGUCCCAGCCUCCUCGCUCGCGCCGGCUGGGCAGCAUUCCGAGGGGACCGUCCCCUCGGUAAUGGCGAAUGGGACCCA [G28C A43G], for which the self-cleavage worked out at 0.0573.

On to GGCCGGCAUGGUCCCAGCCUCCUCGCUGGCGCCGGCUGGGCAUCAUUCCGAGGGGACCUUCCCCUCGGUAAUGGCGAAUGGGACCCA [A43U G59U], for which the self-cleavage worked out at 0.783.

As for GGCCGGCAUGGUACCAGCCUCCUCGCUGGCGCCGGCUGGGCUACAUUCCGAGGGGACCGUCCCCUCGGUAAUGGCGAAUGGGACCCA [C13A A42U], the self-cleavage is 0.0845.

On to GGCCGGCAUGGUCCCAGCCUCCUCGCUAGCGCCGGCUGGGCAACAUUCCGAGGGGACCGUCCCCUCGGUAAGGGCGAAUGGGACCCA [G28A U72G], for which the self-cleavage stood at 0.107.

As to GGCCGGCAUGGUCCCAGCCUCCUCGCUGGCGCCGGCUGGGCAACAUUCCCAGGGGACCGUCCCCUCGGUAAUGGCGAAUAGGACCCA [G50C G80A], the self-cleavage was found to be 0.523.

With GGCCGGCAUGGUCCCAGCCUCCUCUCUGGCGCCGGCUGGGCAACAUUCCGAGGGGACCGUCCCCUCGGUAAUGGGGAAUGGGACCCA [G25U C75G], the self-cleavage worked out at 0.128.

As to GGCCGGCAUGGUCCCAGCCUCAUCGCAGGCGCCGGCUGGGCAACAUUCCGAGGGGACCGUCCCCUCGGUAAUGGCGAAUGGGACCCA [C22A U27A], the self-cleavage stood at 0.0573.

Turning to GGCCUGCAUGGUCCCAGCCUCCUCGCUGGCGCCGGCUGGGCAACAUUCCGAGUGGACCGUCCCCUCGGUAAUGGCGAAUGGGACCCA [G5U G53U], the self-cleavage amounted to 0.268.

On to GGCCGGCAUGGUCGCAGCCUCCUCGCUGGCGCCGGCUGGGCAACAUUCCGAGGGGACGGUCCCCUCGGUAAUGGCGAAUGGGACCCA [C14G C58G], for which the self-cleavage is 0.712.

GGCCGGCAUGGUCCCAGUCUCCUCGCUGGCGCCGGCUGGGCAACAUUCCGAGGGGACCGUCCCCUCGGUAAUGGCGAUUGGGACCCA [C18U A78U]: the self-cleavage is 0.0707.

Take GGCCGGCAUGGGCCCAGCCACCUCGCUGGCGCCGGCUGGGCAACAUUCCGAGGGGACCGUCCCCUCGGUAAUGGCGAAUGGGACCCA [U12G U20A]: the self-cleavage amounted to 0.0573.
